The assay deals with fH6-7 (factor H CCP domains 6-7) (UniProt P08603). Briefly: SPR, Biacore 3000, protein on CM5 chip, fH6-7 as analyte.

This passage reports Kd results from patent US20160030544A1.

fH6-7 (factor H CCP domains 6-7), sequence (P08603 321-443 limits assumed): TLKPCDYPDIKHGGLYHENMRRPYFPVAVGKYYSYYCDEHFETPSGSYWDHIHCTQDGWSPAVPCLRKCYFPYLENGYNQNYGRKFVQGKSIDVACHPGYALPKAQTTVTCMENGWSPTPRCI

“V3.45 fHbp (variant 3 factor H binding protein of N. meningitidis), recombinant wild type”: the Kd is 1 nM. This lies in the single-digit nanomolar range.
